Patent US20230248800A1

Molecular target: human V1a receptor (human) (UniProt P37288)
Test: cell-based or functional assay

Sequence of human V1a receptor (human) (P37288 whole entry): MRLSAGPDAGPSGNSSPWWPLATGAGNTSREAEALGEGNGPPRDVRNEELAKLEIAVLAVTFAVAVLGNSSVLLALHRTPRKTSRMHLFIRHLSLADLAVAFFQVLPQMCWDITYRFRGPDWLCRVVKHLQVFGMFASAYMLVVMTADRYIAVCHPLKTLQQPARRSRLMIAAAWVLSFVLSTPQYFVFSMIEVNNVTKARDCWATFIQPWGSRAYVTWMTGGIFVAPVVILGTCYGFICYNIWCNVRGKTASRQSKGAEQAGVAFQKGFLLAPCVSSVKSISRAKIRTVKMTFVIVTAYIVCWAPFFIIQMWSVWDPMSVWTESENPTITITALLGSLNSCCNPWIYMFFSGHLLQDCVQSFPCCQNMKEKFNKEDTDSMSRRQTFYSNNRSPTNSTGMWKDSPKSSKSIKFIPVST

| Binder | Estimated V1a EC50 (calcium flux) [nM] | V1a Highest agonist effect (% of AVP) |
| --- | --- | --- |
| XFXNCPXG (Mpa at position 1, disulfide bond between Mpa and Cys; Hgn at position 4; (Gly)2 on the side chain of Lys 8; C-terminal amide) [Mpa-Tyr-Phe-Hgn-Asn-Cys-Pro-Lys(X)a-Gly-NH2; (X)a = (Gly)2 [SEQ ID NO. 9]] | 38.2 | 37 % of AVP |
| XFXNCPXG (Mpa at position 1, disulfide bond between Mpa and Cys; Hgn at position 4; (Gly)3 on the side chain of Lys 8; C-terminal amide) [Mpa-Tyr-Phe-Hgn-Asn-Cys-Pro-Lys(X)a-Gly-NH2; (X)a = (Gly)3 [SEQ ID NO. 10]] | 53.5 | 32.9 % of AVP |
| XFXNCPXG (Mpa at position 1, disulfide bond between Mpa and Cys; Hgn at position 4; (Gly)4 on the side chain of Lys 8; C-terminal amide) [Mpa-Tyr-Phe-Hgn-Asn-Cys-Pro-Lys(X)a-Gly-NH2; (X)a = (Gly)4 [SEQ ID NO. 11]] | 161 | 33.6 % of AVP |
| XFXNCPXG (Mpa at position 1, disulfide bond between Mpa and Cys; Hgn at position 4; (Gly)5 on the side chain of Lys 8; C-terminal amide) [Mpa-Tyr-Phe-Hgn-Asn-Cys-Pro-Lys(X)a-Gly-NH2; (X)a = (Gly)5 [SEQ ID NO. 12]] | 50.1 | 29.6 % of AVP |
| XFXNCPXG (Mpa at position 1, disulfide bond between Mpa and Cys; Hgn at position 4; (Gly)6 on the side chain of Lys 8; C-terminal amide) [Mpa-Tyr-Phe-Hgn-Asn-Cys-Pro-Lys(X)a-Gly-NH2; (X)a = (Gly)6 [SEQ ID NO. 13]] | 45.9 | 28.2 % of AVP |
| XFXNCPXG (Mpa at position 1, disulfide bond between Mpa and Cys; Hgn at position 4; (Gly)7 on the side chain of Lys 8; C-terminal amide) [Mpa-Tyr-Phe-Hgn-Asn-Cys-Pro-Lys(X)a-Gly-NH2; (X)a = (Gly)7 [SEQ ID NO. 14]] | 30.9 | 26.1 % of AVP |
| XFXNCPXG (Mpa at position 1, disulfide bond between Mpa and Cys; Hgn at position 4; (Gly)8 on the side chain of Lys 8; C-terminal amide) [Mpa-Tyr-Phe-Hgn-Asn-Cys-Pro-Lys(X)a-Gly-NH2; (X)a = (Gly)8 [SEQ ID NO. 15]] | 226 | 24.8 % of AVP |
| XFXNCPXG (Mpa at position 1, disulfide bond between Mpa and Cys; Hgn at position 4; (Gly)9 on the side chain of Lys 8; C-terminal amide) [Mpa-Tyr-Phe-Hgn-Asn-Cys-Pro-Lys(X)a-Gly-NH2; (X)a = (Gly)9 [SEQ ID NO. 16]] | 105 | 28.1 % of AVP |
| XFXNCPXG (Mpa at position 1, disulfide bond between Mpa and Cys; Hgn at position 4; Gly on the side chain of Lys 8; C-terminal amide) [Mpa-Tyr-Phe-Hgn-Asn-Cys-Pro-Lys(X)-Gly-NH2; X = Gly [SEQ ID NO. 8]] | 25.3 | 40.3 % of AVP |
